This is an account of results in FireProtDB (doi:10.1111/j.1432-1033.1996.00516.x).

The conditions of the data set: Aspergillus oryzae (strain ATCC 42149 / RIB 40), GdnHCl, Fluorescence, reversible: yes, whole UniProt chain shown.
[1] abbreviates: pH 5, 10 °C, Sodium acetate 0.1 M.
[2] abbreviates: pH 5, 25 °C, Sodium acetate 0.1 M.

B1: Guanyl-specific ribonuclease T1 wild type, P00651 (protein)
chain: MMYSKLLTLTTLLLPTALALPSLVERACDYTCGSNCYSSSDVSTAQAAGYQLHEDGETVGSNSYPHKYNNYEGFDFSVSSPYYEWPILSSGDVYSGGSPGADRVVFNENNQLAGVITHTGASGNNFVECT
Regarding B1, the denaturant m value worked out at 2.49 kcal/mol/M under setting [1]; 2.75 kcal/mol/M under setting [2]; 2.63 kcal/mol/M (pH 8, 10 °C, PIPES 0.1 M); 2.46 kcal/mol/M (pH 8, 25 °C, PIPES 0.1 M). The “denaturant midpoint (higher = more stable)” value runs as follows: under setting [1], 3.94 M; under setting [2], 3.63 M; (pH 8, 10 °C, PIPES 0.1 M) 3.21 M; (pH 8, 25 °C, PIPES 0.1 M) 2.4 M.
